Measurements as given in article doi:10.1101/2025.07.08.663703 (2025).

B1: MBP-tagged Mre11-C49 peptide (Mre11 C-terminal residues 644-692) [S. cerevisiae] / HisSUMO-tagged Mer2 [S. cerevisiae] (parent complex)
chain 1: SYGLLNGRKTKTKTRPAASTKTASRRGKGRASRTPKTDILGSLLAKKRK
chain 2: MVARGRTDEISTDVSEANSEHSLMITETSSPFRSIFSHSGKVANAGALEESDKQILEWAGKLELESMELRENSDKLIKVLNENSKTLCKSLNKFNQLLEQDAATNGNVKTLIKDLASQIENQLDKVSTAMLSKGDEKKTKSDSSYRQVLVEEISRYNSKITRHVTNKQHETEKSMRCTQEMLFNVGSQLEDVHKVLLSLSKDMHSLQTRQTALEMAFREKADHAYDRPDVSLNGTTLLHDMDEAHDKQRKKSVPPPRMMVTRSMKRRRSSSPTLSTSQNHNSEDNDDASHRLKRAARTIIPWEELRPDTLESEL

Variants of: B1
Assay: co-expression Ni-NTA pulldown, anti-MBP immunoblot quantification; co-expressed in E. coli; at least seven independent samples; parent: 1; read off a plot

Variant | ratio to parent
chain 1 SYGLLNGRKTKTKTRPAASTKTASRRGKGRASRTPKTDIAGSALAKARK [chain 1 L40A, chain 1 L43A, chain 1 K47A] | ~0.35

Variants of: B1
Assay: as above
Remark: another data set of the same source

Variant | ratio to parent
chain 2 MVARGRTDEISTDVSEANSEHSLMITETSSPFRSIFSHSGKVANAGALEASDKAILAWAGALELESMELRENSDKLIKVLNENSKTLCKSLNKFNQLLEQDAATNGNVKTLIKDLASQIENQLDKVSTAMLSKGDEKKTKSDSSYRQVLVEEISRYNSKITRHVTNKQHETEKSMRCTQEMLFNVGSQLEDVHKVLLSLSKDMHSLQTRQTALEMAFREKADHAYDRPDVSLNGTTLLHDMDEAHDKQRKKSVPPPRMMVTRSMKRRRSSSPTLSTSQNHNSEDNDDASHRLKRAARTIIPWEELRPDTLESEL [chain 2 E50A, chain 2 Q54A, chain 2 E57A, chain 2 K61A] | ~0.26
